Laboratory results reported in the supplement of paper PMC10065799, “High-throughput profiling of sequence recognition by tyrosine kinases and SH2 domains using bacterial peptide display” (eLife, 2023).

What was measured:
Fes = Fes (UniProt P07332); assay: phosphorylation enrichment, bacterial display (enrichment ratio); higher = better substrate or ligand; peptides without Tyr show the background
Hck = Hck (UniProt P08631); assay: as above
Fyn = Fyn (UniProt P06241); assay: as above
AncSZ = assay: as above
c-Src = assay: as above
c-Abl (mouse) = assay: as above
MERTK = MERTK (UniProt Q12866); assay: as above
EPHB2 = EPHB2 (UniProt P29323); assay: as above
Fer (mouse) = assay: as above
FGFR3 = FGFR3 (UniProt P22607); assay: as above
EPHB1 = EPHB1 (UniProt P54762); assay: as above
Jak2 = Jak2 (UniProt O60674); assay: as above
FGFR1 = FGFR1 (UniProt P11362); assay: as above
SHP2-C SH2 = assay: SH2 binding enrichment of the phosphorylated peptide, bacterial display (enrichment ratio); higher = better substrate or ligand; peptides without Tyr show the background
Grb2 SH2 = Grb2 SH2 (UniProt P62993); assay: as above
c-Src SH2 = assay: as above
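For SH2 binding enrichment of the phosphorylated peptide, bacterial display in this document: peptide library displayed on the E. coli surface as eCPX fusions, selected cells deep-sequenced, score is each peptide's frequency after selection divided by its frequency in the input.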
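For phosphorylation enrichment, bacterial display in this document: 11-residue human phosphosite peptides and single-mutation variants displayed on the E. coli surface, counted by deep sequencing, each peptide's frequency after selection divided by its frequency in the unselected input library; frequency after pTyr selection over input frequency; kinase dosed for 20-30% of maximal phosphorylation in three min.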

FGFR3, sequence (P22607 whole entry, looked up): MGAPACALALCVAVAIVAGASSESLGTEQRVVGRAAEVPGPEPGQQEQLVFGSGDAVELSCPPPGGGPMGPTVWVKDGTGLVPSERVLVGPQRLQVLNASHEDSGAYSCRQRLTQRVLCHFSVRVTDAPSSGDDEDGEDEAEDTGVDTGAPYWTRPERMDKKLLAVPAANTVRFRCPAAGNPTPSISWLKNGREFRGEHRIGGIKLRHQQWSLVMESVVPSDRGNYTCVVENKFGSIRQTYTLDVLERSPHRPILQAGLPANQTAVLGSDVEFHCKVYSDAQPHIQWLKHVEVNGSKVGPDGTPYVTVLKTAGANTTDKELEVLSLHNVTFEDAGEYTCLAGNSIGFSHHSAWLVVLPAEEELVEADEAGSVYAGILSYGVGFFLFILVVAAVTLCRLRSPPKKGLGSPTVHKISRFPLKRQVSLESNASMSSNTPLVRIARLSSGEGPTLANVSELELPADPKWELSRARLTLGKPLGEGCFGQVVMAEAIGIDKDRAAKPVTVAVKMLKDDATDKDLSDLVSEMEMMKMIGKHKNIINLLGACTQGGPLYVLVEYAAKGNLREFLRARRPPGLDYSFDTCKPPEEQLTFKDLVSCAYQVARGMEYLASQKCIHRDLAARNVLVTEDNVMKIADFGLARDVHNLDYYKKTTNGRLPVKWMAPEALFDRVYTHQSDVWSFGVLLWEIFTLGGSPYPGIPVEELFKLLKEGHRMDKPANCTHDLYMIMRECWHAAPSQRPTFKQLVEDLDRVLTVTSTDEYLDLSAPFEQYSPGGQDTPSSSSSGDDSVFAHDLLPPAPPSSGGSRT
Fes, sequence (P07332 whole entry, looked up): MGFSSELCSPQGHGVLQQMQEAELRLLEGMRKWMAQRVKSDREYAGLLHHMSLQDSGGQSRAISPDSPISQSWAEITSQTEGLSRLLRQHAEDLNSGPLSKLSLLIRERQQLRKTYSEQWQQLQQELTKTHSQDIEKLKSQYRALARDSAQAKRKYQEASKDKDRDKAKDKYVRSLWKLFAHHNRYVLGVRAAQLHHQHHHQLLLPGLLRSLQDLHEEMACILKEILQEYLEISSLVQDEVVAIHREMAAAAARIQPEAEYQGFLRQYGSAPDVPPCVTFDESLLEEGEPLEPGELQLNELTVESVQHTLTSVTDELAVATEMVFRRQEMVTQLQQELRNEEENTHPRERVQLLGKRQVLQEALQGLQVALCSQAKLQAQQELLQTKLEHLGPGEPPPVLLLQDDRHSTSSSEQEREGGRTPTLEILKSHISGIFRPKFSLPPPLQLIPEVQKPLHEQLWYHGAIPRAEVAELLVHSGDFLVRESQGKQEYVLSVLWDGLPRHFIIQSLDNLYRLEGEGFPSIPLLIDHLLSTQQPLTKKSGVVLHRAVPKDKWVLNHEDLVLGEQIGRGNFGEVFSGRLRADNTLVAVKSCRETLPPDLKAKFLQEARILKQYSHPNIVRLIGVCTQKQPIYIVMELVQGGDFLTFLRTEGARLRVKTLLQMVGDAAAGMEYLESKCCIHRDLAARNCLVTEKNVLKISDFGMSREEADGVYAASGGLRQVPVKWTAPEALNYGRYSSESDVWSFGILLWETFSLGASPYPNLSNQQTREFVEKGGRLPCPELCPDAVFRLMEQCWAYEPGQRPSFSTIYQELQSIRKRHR
FGFR1, sequence (P11362 whole entry, looked up): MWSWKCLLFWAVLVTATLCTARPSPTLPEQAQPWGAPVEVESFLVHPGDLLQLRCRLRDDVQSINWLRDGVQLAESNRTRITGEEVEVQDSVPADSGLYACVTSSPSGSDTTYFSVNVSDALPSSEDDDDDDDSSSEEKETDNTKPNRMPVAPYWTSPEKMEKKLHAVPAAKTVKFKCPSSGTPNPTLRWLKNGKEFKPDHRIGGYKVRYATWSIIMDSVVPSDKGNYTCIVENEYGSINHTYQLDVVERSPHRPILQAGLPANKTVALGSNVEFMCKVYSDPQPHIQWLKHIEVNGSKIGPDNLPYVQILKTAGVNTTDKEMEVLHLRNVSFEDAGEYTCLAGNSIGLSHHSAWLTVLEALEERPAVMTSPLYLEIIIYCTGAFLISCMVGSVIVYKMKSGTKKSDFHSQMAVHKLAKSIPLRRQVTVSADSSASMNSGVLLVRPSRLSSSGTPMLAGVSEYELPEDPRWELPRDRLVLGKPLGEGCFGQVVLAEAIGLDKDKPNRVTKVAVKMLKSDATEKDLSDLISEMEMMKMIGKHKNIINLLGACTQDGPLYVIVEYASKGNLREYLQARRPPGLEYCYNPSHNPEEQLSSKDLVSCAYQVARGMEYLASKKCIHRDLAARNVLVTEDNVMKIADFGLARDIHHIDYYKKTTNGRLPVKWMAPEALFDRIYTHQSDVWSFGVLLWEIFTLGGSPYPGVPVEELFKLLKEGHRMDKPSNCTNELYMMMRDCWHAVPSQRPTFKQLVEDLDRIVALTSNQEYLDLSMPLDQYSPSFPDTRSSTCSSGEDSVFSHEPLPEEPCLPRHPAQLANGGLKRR
Grb2 SH2, sequence (P62993 whole entry, looked up): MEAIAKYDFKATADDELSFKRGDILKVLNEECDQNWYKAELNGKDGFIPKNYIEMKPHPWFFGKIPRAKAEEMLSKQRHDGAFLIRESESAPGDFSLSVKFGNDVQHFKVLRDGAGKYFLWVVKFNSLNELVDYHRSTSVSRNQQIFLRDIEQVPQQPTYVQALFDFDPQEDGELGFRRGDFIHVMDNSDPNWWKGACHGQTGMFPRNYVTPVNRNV
Fyn, sequence (P06241 whole entry, looked up): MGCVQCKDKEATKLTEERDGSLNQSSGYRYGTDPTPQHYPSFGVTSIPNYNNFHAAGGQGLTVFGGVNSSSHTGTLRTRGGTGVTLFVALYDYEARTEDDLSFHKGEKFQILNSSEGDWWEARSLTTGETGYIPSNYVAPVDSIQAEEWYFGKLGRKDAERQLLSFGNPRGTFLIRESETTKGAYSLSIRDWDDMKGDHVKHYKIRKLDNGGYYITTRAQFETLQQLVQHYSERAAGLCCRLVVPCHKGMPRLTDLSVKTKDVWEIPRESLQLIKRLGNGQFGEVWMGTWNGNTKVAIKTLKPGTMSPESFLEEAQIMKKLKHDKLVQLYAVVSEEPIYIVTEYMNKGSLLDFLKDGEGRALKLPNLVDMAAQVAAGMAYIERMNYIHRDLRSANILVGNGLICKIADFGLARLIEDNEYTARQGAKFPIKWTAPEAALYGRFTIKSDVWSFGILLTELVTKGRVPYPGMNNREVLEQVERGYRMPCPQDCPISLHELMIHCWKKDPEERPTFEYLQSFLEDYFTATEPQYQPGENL
EPHB1, sequence (P54762 whole entry, looked up): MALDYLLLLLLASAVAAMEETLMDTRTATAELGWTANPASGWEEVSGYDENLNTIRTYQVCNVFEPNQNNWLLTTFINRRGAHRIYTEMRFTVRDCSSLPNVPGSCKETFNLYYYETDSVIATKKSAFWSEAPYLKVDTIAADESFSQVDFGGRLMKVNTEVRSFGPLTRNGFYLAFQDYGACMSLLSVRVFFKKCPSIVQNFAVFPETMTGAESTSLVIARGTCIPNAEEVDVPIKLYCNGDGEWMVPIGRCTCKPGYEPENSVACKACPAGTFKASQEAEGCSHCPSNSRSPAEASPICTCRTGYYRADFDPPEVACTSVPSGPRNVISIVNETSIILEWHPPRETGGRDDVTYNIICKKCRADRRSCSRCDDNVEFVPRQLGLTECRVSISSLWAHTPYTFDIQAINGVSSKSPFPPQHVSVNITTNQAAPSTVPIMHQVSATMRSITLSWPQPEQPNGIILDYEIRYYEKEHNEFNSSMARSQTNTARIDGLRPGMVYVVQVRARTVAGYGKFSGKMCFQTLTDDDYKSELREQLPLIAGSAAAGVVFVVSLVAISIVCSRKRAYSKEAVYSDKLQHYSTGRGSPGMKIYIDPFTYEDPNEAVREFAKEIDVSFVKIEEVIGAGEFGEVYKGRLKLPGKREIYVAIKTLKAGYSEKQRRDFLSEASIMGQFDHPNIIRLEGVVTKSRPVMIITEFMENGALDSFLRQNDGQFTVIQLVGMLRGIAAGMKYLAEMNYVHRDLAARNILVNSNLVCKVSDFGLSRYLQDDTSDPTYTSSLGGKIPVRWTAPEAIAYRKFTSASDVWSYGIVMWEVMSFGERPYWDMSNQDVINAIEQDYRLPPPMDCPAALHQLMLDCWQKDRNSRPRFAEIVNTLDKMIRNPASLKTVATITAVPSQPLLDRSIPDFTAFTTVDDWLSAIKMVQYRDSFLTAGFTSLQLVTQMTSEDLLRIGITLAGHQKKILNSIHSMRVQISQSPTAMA
Hck, sequence (P08631 whole entry, looked up): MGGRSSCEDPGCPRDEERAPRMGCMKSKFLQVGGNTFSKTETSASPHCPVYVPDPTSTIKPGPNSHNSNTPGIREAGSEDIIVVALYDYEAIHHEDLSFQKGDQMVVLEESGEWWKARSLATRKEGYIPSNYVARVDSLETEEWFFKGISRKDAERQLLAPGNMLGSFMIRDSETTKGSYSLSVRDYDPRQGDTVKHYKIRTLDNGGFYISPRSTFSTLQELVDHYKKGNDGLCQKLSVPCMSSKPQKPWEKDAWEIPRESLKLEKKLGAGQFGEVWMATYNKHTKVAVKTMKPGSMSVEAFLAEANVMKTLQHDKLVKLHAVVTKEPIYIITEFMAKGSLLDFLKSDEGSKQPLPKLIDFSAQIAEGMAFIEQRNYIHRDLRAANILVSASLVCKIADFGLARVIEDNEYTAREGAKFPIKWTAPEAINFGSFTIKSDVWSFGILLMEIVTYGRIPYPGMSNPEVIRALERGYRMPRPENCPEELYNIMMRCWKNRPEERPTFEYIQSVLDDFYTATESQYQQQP

## RTIPDYTSFNT [EPHB2_Y912]
Fes
  phosphorylation enrichment: 0.66
Hck
  phosphorylation enrichment: 0.561
Fyn
  phosphorylation enrichment: 0.63
AncSZ
  phosphorylation enrichment: 0.893
c-Src
  phosphorylation enrichment: 0.923
c-Abl (mouse)
  phosphorylation enrichment: 1.02
MERTK
  phosphorylation enrichment: 0.538
EPHB2
  phosphorylation enrichment: 0.632
Fer (mouse)
  phosphorylation enrichment: 0.417
FGFR3
  phosphorylation enrichment: 0.991
EPHB1
  phosphorylation enrichment: 0.866
Jak2
  phosphorylation enrichment: 0.978
FGFR1
  phosphorylation enrichment: 1.2
SHP2-C SH2
  SH2 binding enrichment: 0.926
Grb2 SH2
  SH2 binding enrichment: 1.12
c-Src SH2
  SH2 binding enrichment: 0.813
